What was measured:
Human KIR3DL3 [1] = biological target: T1, Human KIR3DL3 (human, UniProt Q8N743 26-410); experiment: flow cytometry, KIR3DL3-transfected 300.19 cells
T1 construct: also called Killer cell immunoglobulin-like receptor 3DL3

Human KIR3DL3 [2] = biological target: T1, Human KIR3DL3; experiment: cell-based or functional assay
Human KIR3DL3 [3] = biological target: T1, Human KIR3DL3; experiment: flow cytometry; blockade of HHLA2-mIgG2a binding to KIR3DL3-transfected cells
Procedure: (§1) The indicated concentrations of KIR3DL3 mAbs were pre-incubated with KIR3DL3 transfected 300.19 cells for 30 minutes at 4° C. […] EC50 and IC50 analysis were conducted using GraphPad Prism®.

Human KIR3DL3 [4] = biological target: T1, Human KIR3DL3; experiment: flow cytometry; blockade of HHLA2-mIgG2a binding to KIR3DL3-transfected 300.19 cells; Table 3; blockade of HHLA2-mouse IgG2a binding to KIR3DL3 transfected 300.19 cells, 4° C
Procedure: as §1

Human KIR3DL3 [5] = biological target: T1, Human KIR3DL3; experiment: flow cytometry, KIR3DL3-transfected 300.19 cells; remark: listed apart in the source
KIR2DS2 = biological target: T2, KIR2DS2 (UniProt P43631 22-304, limits assumed); experiment: HEK293 cell microarray
T2 construct: whole, on cells
T2 sequence (P43631 22-304 limits assumed): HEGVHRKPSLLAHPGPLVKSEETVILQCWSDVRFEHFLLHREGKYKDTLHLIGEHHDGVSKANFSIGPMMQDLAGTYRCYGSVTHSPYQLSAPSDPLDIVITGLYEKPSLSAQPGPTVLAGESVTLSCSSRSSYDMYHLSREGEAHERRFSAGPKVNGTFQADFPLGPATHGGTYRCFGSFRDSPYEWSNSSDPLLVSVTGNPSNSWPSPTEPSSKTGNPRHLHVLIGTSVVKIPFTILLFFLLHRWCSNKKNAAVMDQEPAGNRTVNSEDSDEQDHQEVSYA
Procedure: (§2) Replicate microarray slides expressing a complete KIR family cDNA panel were fixed and blocked with buffer containing PBS/0.5% BSA and incubated for 1 hour at room temperature with individual KIR3DL3 mAb hybridoma supernatants at 1:5, 1:25 and 1:250 dilutions in PBS/0.1% BSA. Cell arrays were washed with PBS and incubated for 1 hour at room temperature in PBS/0.1% BSA containing AF647-conjugated goat anti-mouse IgG (H+L) (Life Technologies, A21235). Slides were washed with PBS, dried, and imaged for ZsGreen1 and AF647 fluorescence.
as §2, with “In Table 4, replicate” for “Replicate”, “the” for “a complete”, “panel (as in FIG. 1A, FIG. 2B, and FIG. 2C)” for “panel”

KIR2DL5B = biological target: T3, KIR2DL5B (UniProt Q8NHK3 22-375, limits assumed); experiment: HEK293 cell microarray
T3 construct: whole, on cells
T3 sequence (Q8NHK3 22-375 limits assumed): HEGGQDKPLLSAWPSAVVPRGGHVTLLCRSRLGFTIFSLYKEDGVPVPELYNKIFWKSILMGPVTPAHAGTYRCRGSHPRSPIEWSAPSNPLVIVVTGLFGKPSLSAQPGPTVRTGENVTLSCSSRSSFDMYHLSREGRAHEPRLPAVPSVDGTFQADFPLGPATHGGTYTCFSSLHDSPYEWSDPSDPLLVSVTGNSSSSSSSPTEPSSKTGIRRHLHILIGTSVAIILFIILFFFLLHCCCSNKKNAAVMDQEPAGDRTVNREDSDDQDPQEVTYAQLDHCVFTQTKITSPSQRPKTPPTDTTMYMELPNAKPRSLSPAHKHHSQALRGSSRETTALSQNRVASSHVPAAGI
Procedure: as §2
as §2, with “In Table 4, replicate” for “Replicate”, “the” for “a complete”, “panel (as in FIG. 1A, FIG. 2B, and FIG. 2C)” for “panel”

KIR2DL4 = biological target: T4, KIR2DL4 (UniProt Q99706 22-377, limits assumed); experiment: HEK293 cell microarray
T4 construct: whole, on cells
T4 sequence (Q99706 22-377 limits assumed): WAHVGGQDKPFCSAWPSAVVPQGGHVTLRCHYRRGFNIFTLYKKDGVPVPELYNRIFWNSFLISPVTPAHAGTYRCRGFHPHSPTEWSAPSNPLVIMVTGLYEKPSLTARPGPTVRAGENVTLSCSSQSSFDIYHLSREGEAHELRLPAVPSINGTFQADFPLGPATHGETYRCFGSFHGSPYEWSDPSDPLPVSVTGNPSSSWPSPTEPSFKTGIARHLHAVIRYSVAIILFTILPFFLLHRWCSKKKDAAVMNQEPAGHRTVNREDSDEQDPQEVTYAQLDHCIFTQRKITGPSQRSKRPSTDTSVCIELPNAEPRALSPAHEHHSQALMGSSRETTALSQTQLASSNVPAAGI
Procedure: as §2
as §2, with “In Table 4, replicate” for “Replicate”, “the” for “a complete”, “panel (as in FIG. 1A, FIG. 2B, and FIG. 2C)” for “panel”

KIR2DL2 = biological target: T5, KIR2DL2 (UniProt P43627 22-348, limits assumed); experiment: HEK293 cell microarray
T5 construct: whole, on cells
T5 sequence (P43627 22-348 limits assumed): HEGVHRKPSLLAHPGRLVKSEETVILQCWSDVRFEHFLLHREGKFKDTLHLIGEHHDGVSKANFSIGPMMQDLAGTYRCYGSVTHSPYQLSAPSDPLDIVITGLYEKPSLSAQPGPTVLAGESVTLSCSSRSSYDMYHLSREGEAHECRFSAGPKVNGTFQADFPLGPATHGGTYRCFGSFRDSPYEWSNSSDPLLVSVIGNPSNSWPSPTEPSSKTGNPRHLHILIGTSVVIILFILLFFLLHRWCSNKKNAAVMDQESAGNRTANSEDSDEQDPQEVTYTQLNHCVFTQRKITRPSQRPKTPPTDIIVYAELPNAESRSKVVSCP
Procedure: as §2
as §2, with “In Table 4, replicate” for “Replicate”, “the” for “a complete”, “panel (as in FIG. 1A, FIG. 2B, and FIG. 2C)” for “panel”

KIR2DL5A [6] = biological target: T6, KIR2DL5A (UniProt Q8N109 22-375, limits assumed); experiment: HEK293 cell microarray
T6 construct: whole, on cells
T6 sequence (Q8N109 22-375 limits assumed): as the sequence (Q8NHK3 22-375 limits assumed) above, with D152N, S174G counted along it
Procedure: as §2
as §2, with “In Table 4, replicate” for “Replicate”, “the” for “a complete”, “panel (as in FIG. 1A, FIG. 2B, and FIG. 2C)” for “panel”

KIR3DL1 = biological target: T7, KIR3DL1 (UniProt P43629 22-444, limits assumed); experiment: HEK293 cell microarray
T7 construct: whole, on cells
T7 sequence (P43629 22-444 limits assumed): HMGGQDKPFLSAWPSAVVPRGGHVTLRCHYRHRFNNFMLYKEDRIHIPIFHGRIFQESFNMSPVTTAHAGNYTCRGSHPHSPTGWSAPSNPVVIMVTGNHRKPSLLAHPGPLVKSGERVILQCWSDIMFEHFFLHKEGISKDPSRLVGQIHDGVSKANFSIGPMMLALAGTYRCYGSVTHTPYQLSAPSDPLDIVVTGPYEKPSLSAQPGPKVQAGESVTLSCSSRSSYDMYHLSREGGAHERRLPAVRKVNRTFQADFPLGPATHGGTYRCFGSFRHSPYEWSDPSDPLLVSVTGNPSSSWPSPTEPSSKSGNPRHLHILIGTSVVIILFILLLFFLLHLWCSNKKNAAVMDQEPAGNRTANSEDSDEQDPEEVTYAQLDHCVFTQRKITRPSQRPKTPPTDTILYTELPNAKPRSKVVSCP
Procedure: as §2
as §2, with “In Table 4, replicate” for “Replicate”, “the” for “a complete”, “panel (as in FIG. 1A, FIG. 2B, and FIG. 2C)” for “panel”

KIR2DL3 = biological target: T8, KIR2DL3 (UniProt P43628 22-341, limits assumed); experiment: HEK293 cell microarray
T8 construct: whole, on cells
T8 sequence (P43628 22-341 limits assumed): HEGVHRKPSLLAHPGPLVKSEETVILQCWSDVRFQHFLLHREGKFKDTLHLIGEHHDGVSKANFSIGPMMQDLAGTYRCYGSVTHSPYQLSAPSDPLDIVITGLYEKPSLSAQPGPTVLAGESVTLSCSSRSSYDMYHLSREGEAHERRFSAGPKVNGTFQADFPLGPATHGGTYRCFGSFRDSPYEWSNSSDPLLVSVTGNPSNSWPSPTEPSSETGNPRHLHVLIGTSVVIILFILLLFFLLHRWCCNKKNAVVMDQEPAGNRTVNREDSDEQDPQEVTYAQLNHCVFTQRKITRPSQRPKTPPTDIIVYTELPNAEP
Procedure: as §2
as §2, with “In Table 4, replicate” for “Replicate”, “the” for “a complete”, “panel (as in FIG. 1A, FIG. 2B, and FIG. 2C)” for “panel”

KIR2DS3 = biological target: T9, KIR2DS3 (UniProt Q14952 22-304, limits assumed); experiment: HEK293 cell microarray
T9 construct: whole, on cells
T9 sequence (Q14952 22-304 limits assumed): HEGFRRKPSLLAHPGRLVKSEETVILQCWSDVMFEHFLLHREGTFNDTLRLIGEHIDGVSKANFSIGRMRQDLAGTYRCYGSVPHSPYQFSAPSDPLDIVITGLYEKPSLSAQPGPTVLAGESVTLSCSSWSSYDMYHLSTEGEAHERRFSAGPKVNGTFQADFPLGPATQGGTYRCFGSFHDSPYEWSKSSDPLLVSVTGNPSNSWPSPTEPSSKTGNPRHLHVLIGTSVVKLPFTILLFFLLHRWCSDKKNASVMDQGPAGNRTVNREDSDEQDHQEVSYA
Procedure: as §2
as §2, with “In Table 4, replicate” for “Replicate”, “the” for “a complete”, “panel (as in FIG. 1A, FIG. 2B, and FIG. 2C)” for “panel”

KIR2DL1 = biological target: T10, KIR2DL1 (UniProt P43626 22-348, limits assumed); experiment: HEK293 cell microarray
T10 construct: whole, on cells
T10 sequence (P43626 22-348 limits assumed): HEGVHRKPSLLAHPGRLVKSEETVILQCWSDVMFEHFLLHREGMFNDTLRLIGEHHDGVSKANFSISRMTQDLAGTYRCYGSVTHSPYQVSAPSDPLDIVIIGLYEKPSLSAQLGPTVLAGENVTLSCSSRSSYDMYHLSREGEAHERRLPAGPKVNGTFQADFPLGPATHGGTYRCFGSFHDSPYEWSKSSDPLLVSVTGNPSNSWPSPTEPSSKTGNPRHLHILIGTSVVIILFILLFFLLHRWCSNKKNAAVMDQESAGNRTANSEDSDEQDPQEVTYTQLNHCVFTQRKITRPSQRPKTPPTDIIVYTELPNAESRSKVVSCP
Procedure: as §2
as §2, with “In Table 4, replicate” for “Replicate”, “the” for “a complete”, “panel (as in FIG. 1A, FIG. 2B, and FIG. 2C)” for “panel”

KIR2DS1 = biological target: T11, KIR2DS1 (UniProt Q14954 22-304, limits assumed); experiment: HEK293 cell microarray
T11 construct: whole, on cells
T11 sequence (Q14954 22-304 limits assumed): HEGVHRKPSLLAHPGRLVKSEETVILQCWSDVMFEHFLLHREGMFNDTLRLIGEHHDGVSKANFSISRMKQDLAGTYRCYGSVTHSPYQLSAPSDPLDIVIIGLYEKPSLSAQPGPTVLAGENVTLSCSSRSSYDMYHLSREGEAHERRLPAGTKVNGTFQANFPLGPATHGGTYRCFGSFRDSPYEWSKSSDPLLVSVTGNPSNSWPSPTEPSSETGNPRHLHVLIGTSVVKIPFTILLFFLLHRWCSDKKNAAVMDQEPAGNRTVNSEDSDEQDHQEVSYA
Procedure: as §2
as §2, with “In Table 4, replicate” for “Replicate”, “the” for “a complete”, “panel (as in FIG. 1A, FIG. 2B, and FIG. 2C)” for “panel”

KIR3DS1 = biological target: T12, KIR3DS1 (UniProt Q14943 22-382, limits assumed); experiment: HEK293 cell microarray
T12 construct: whole, on cells
T12 sequence (Q14943 22-382 limits assumed): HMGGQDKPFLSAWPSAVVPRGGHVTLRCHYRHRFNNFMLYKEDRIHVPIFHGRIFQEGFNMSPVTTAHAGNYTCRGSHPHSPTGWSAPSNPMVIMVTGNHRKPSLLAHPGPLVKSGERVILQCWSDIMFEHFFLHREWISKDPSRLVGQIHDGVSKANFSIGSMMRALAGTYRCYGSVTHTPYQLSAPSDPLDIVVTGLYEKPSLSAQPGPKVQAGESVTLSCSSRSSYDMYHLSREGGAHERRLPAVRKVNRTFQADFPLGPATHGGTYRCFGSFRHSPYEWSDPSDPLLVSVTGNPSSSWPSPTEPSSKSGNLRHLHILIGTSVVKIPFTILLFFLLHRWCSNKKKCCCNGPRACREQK
Procedure: as §2
as §2, with “In Table 4, replicate” for “Replicate”, “the” for “a complete”, “panel (as in FIG. 1A, FIG. 2B, and FIG. 2C)” for “panel”

KIR2DS5 = biological target: T13, KIR2DS5 (UniProt Q14953 22-304, limits assumed); experiment: HEK293 cell microarray
T13 construct: whole, on cells
T13 sequence (Q14953 22-304 limits assumed): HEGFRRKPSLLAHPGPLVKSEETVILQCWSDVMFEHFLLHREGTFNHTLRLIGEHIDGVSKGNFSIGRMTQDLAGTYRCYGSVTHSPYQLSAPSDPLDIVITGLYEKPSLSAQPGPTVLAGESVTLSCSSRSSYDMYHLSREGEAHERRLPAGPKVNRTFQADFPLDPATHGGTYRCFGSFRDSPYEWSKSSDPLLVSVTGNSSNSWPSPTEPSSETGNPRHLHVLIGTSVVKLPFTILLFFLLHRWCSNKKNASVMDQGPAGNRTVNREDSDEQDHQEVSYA
Procedure: as §2
as §2, with “In Table 4, replicate” for “Replicate”, “the” for “a complete”, “panel (as in FIG. 1A, FIG. 2B, and FIG. 2C)” for “panel”

KIR3DL2 = biological target: T14, KIR3DL2 (UniProt P43630 22-455, limits assumed); experiment: HEK293 cell microarray
T14 construct: whole, on cells
T14 sequence (P43630 22-455 limits assumed): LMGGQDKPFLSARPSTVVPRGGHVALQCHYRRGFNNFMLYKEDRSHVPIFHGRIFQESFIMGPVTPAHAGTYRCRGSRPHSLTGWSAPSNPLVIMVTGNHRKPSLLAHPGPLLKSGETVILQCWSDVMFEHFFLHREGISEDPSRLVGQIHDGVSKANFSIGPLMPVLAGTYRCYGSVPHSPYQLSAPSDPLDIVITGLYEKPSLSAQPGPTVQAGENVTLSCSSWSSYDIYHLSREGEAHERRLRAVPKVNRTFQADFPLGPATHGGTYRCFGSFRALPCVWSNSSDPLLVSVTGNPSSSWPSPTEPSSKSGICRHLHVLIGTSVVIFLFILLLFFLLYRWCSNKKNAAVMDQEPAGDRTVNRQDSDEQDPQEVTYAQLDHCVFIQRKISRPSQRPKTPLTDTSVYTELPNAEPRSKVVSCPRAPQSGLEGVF
Procedure: as §2
as §2, with “In Table 4, replicate” for “Replicate”, “the” for “a complete”, “panel (as in FIG. 1A, FIG. 2B, and FIG. 2C)” for “panel”

KIR2DL5A [7] = biological target: T6, KIR2DL5A; experiment: HEK293 cell microarray, hybridoma supernatant
Procedure: as §2, with “In Table 4, replicate” for “Replicate”, “the” for “a complete”, “panel (as in FIG. 1A, FIG. 2B, and FIG. 2C)” for “panel”

T1 sequence (Q8N743 26-410 H321N limits assumed): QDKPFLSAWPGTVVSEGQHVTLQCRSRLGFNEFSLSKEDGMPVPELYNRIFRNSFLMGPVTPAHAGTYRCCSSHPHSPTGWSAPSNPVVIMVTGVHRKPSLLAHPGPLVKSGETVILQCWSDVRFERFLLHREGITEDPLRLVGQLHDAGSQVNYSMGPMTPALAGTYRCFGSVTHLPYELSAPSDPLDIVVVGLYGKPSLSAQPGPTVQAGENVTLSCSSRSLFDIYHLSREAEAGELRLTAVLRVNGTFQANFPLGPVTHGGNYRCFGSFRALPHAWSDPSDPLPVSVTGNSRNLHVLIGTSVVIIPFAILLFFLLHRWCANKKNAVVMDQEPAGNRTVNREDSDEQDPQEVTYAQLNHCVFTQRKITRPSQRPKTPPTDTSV

B1: KIR3DL3 mAb 574.2.1G7.9.9 (antibody, IgG2b, V domains shown)
VH: ELKLEESGGGLVQPGGSMKLSCVASGFTFSNYWMNWVRQSPEKGLEWIAEIRLKSNNYATHYAESVKGRFTISRDDSKSSVYLQMNNLRAEDTGIFYCTPFYGSSFPYWGQGTLVTVSA
VL: DIQMTQTTSSLSASLGDRVTISCRASQDISNYLNWYQQKPDGTVKLLIYYTSILQLGVPPRFSGSGSGTDYSLTISNLEQEDIATYFCQQGNTLPFTFGAGTKVELK
notes: Mouse hybridoma antibody, IgG2b; only variable domains given; also called AVS-3701
**Q.** Which EC50 (Human KIR3DL3 [1]) does the source give for B1 here?
**A.** 0.13 µg/mL

**Q.** And the “Jurkat IL-2 Luciferase Activation, EC50” value (Human KIR3DL3 [2])?
**A.** 0.37 µg/mL

**Q.** What about the “Jurkat IL-2 Luciferase, Fold Activation” value (Human KIR3DL3 [2]) of the same binder?
**A.** 9.9 fold

**Q.** And the IC50 (Human KIR3DL3 [3])?
**A.** 0.61 µg/mL

**Q.** What about the IC50 (Human KIR3DL3 [4]) of the same binder?
**A.** 0.06 µg/mL

**Q.** And the Kd (Human KIR3DL3 [5])?
**A.** 0.13 µg/mL

**Q.** Does B1 bind (KIR2DS2)?
**A.** no binding (tested: supernatant 1:5, 1:25, 1:250)

**Q.** Does B1 bind (KIR2DL5B)?
**A.** no binding (tested: supernatant 1:5, 1:25, 1:250)

**Q.** Does B1 bind (KIR2DL4)?
**A.** no binding (tested: supernatant 1:5, 1:25, 1:250)

**Q.** Does B1 bind (KIR2DL2)?
**A.** no binding (tested: supernatant 1:5, 1:25, 1:250)

**Q.** Does B1 bind (KIR2DL5A [6])?
**A.** no binding (tested: supernatant 1:5, 1:25, 1:250)

**Q.** Does B1 bind (KIR3DL1)?
**A.** no binding (tested: supernatant 1:5, 1:25, 1:250)

**Q.** Does B1 bind (KIR2DL3)?
**A.** no binding (tested: supernatant 1:5, 1:25, 1:250)

**Q.** Does B1 bind (KIR2DS3)?
**A.** no binding (tested: supernatant 1:5, 1:25, 1:250)

**Q.** Does B1 bind (KIR2DL1)?
**A.** no binding (tested: supernatant 1:5, 1:25, 1:250)

**Q.** Does B1 bind (KIR2DS1)?
**A.** no binding (tested: supernatant 1:5, 1:25, 1:250)

**Q.** Does B1 bind (KIR3DS1)?
**A.** no binding (tested: supernatant 1:5, 1:25, 1:250)

**Q.** Does B1 bind (KIR2DS5)?
**A.** no binding (tested: supernatant 1:5, 1:25, 1:250)

**Q.** Does B1 bind (KIR3DL2)?
**A.** no binding (tested: supernatant 1:5, 1:25, 1:250)

B2: KIR3DL3 mAb 574.2.8C2.12.3.10 (antibody, IgG2a, V domains shown)
VH: KVQLQQSGAELVRPGTSVKVSCKASGYAFTNYLIEWVKQRPGQGLEWIGVINPGSGGTNDNEKFRDKATLTADKSSSTAYMQLSSLTSDDSAVYFCARGNYYGTTDWYFDVWGAGTTVTVSS
VL: QIVLTQSPAIMSASLGERVTMTCTASASVSSSSLHWYQQKPGSPPKFWIYSTTNLASGVPTRFSGSGSGTSYSLTISNMEAEDAATYYCHQYHRSPPTFGGGTKLEIK
notes: Mouse hybridoma antibody, IgG2a; only variable domains given; also called AVS-3706
**Q.** Does B2 bind (KIR2DS2)?
**A.** no binding (tested: supernatant 1:5, 1:25, 1:250)

**Q.** Does B2 bind (KIR2DL4)?
**A.** no binding (tested: supernatant 1:5, 1:25, 1:250)

**Q.** Does B2 bind (KIR2DL2)?
**A.** no binding (tested: supernatant 1:5, 1:25, 1:250)

**Q.** Does B2 bind (KIR3DL1)?
**A.** no binding (tested: supernatant 1:5, 1:25, 1:250)

**Q.** Does B2 bind (KIR2DL3)?
**A.** no binding (tested: supernatant 1:5, 1:25, 1:250)

**Q.** Does B2 bind (KIR2DS3)?
**A.** no binding (tested: supernatant 1:5, 1:25, 1:250)

**Q.** Does B2 bind (KIR2DL1)?
**A.** no binding (tested: supernatant 1:5, 1:25, 1:250)

**Q.** Does B2 bind (KIR2DS1)?
**A.** no binding (tested: supernatant 1:5, 1:25, 1:250)

**Q.** Does B2 bind (KIR3DS1)?
**A.** no binding (tested: supernatant 1:5, 1:25, 1:250)

**Q.** Does B2 bind (KIR2DS5)?
**A.** no binding (tested: supernatant 1:5, 1:25, 1:250)

**Q.** Does B2 bind (KIR3DL2)?
**A.** no binding (tested: supernatant 1:5, 1:25, 1:250)

**Q.** Does B2 bind (KIR2DL5A [7])?
**A.** binds

From patent publication US20250388702A1 (Dana-Farber, published 2025)
